Tested on: Escherichia coli TOP10
Experiment: shrunken log2 fold change of peptide-encoding DNA abundance (4.5 h post-induction vs induction); higher = less antimicrobial activity (less host growth inhibition)
Conditions: time post-induction: 4.5 h; library: site-saturation at positions 5, 18, 19, 20
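Further: peptides expressed intracellularly from a pBAD plasmid library in pooled LB shake-flask culture, induced with 0.3% L-arabinose, DNA abundance read by NGS, three biological replicates, DESeq2 with apeglm shrinkage.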

| Sequence | shrunken log2 fold change |
| --- | --- |
| RRIRHRPPRLPRPRPRPWMTPRP | -0.225 |
| RRIRHRPPRLPRPRPRPWNLPRP | -0.278 |
| RRIRHRPPRLPRPRPRPWNPPRP | -0.221 |
| RRIRHRPPRLPRPRPRPWPDPRP | -0.0062 |
| RRIRHRPPRLPRPRPRPWPIPRP | -0.00691 |
| RRIRHRPPRLPRPRPRPWPKPRP | 0.015 |
| RRIRHRPPRLPRPRPRPWPPPRP | 0.491 |
| RRIRHRPPRLPRPRPRPWRMPRP | 0.0309 |
| RRIRHRPPRLPRPRPRPWTAPRP | -0.0875 |
| RRIRHRPPRLPRPRPRPWWDPRP | -0.0461 |
| RRIRHRPPRLPRPRPRPWWRPRP | 0.219 |
| RRIRHRPPRLPRPRPRPWWTPRP | 0.00261 |
| RRIRHRPPRLPRPRPRPWYWPRP | -0.115 |
| RRIRHRPPRLPRPRPRPYATPRP | -0.172 |
| RRIRHRPPRLPRPRPRPYCFPRP | -0.792 |
| RRIRHRPPRLPRPRPRPYCIPRP | -0.21 |
| RRIRHRPPRLPRPRPRPYDAPRP | -0.271 |
| RRIRHRPPRLPRPRPRPYENPRP | -0.0765 |
| RRIRHRPPRLPRPRPRPYFLPRP | -0.996 |
| RRIRHRPPRLPRPRPRPYGGPRP | -0.91 |
| RRIRHRPPRLPRPRPRPYHAPRP | -1.21 |
| RRIRHRPPRLPRPRPRPYHTPRP | -0.132 |
| RRIRHRPPRLPRPRPRPYIFPRP | -0.446 |
| RRIRHRPPRLPRPRPRPYIVPRP | -0.191 |
| RRIRHRPPRLPRPRPRPYLIPRP | -0.574 |

| Sequence | shrunken log2 fold change |
| --- | --- |
| RRIRHRPPRLPRPRPRPYPFPRP | -0.772 |
| RRIRHRPPRLPRPRPRPYPIPRP | -0.887 |
| RRIRHRPPRLPRPRPRPYPVPRP | -0.00992 |
| RRIRHRPPRLPRPRPRPYQSPRP | 0.0306 |
| RRIRHRPPRLPRPRPRPYQVPRP | -0.0252 |
| RRIRHRPPRLPRPRPRPYRLPRP | -0.302 |
| RRIRHRPPRLPRPRPRPYTIPRP | -0.0416 |
| RRIRHRPPRLPRPRPRPYTQPRP | -0.711 |
| RRIRHRPPRLPRPRPRPYVRPRP | 0.017 |
| RRIRHRPPRLPRPRPRPYYQPRP | -0.416 |
| RRIRIRPPRLPRPRPRPAAWPRP | 0.112 |
| RRIRIRPPRLPRPRPRPACVPRP | 0.0215 |
| RRIRIRPPRLPRPRPRPADMPRP | -0.0222 |
| RRIRIRPPRLPRPRPRPAEFPRP | -0.0793 |
| RRIRIRPPRLPRPRPRPAERPRP | 0.0773 |
| RRIRIRPPRLPRPRPRPAGVPRP | 0.293 |
| RRIRIRPPRLPRPRPRPAIGPRP | -0.207 |
| RRIRIRPPRLPRPRPRPALHPRP | -0.268 |
| RRIRIRPPRLPRPRPRPANKPRP | -0.222 |
| RRIRIRPPRLPRPRPRPAPSPRP | 0.444 |
| RRIRIRPPRLPRPRPRPAPYPRP | -0.406 |
| RRIRIRPPRLPRPRPRPAQDPRP | -0.0552 |
| RRIRIRPPRLPRPRPRPARAPRP | 0.307 |
| RRIRIRPPRLPRPRPRPARVPRP | -0.0658 |
| RRIRIRPPRLPRPRPRPASHPRP | -0.106 |

| Sequence | shrunken log2 fold change |
| --- | --- |
| RRIRIRPPRLPRPRPRPASTPRP | -0.0836 |
| RRIRIRPPRLPRPRPRPATGPRP | -0.119 |
| RRIRIRPPRLPRPRPRPAWPPRP | 0.339 |
| RRIRIRPPRLPRPRPRPAYFPRP | -0.411 |
| RRIRIRPPRLPRPRPRPAYNPRP | -0.111 |
| RRIRIRPPRLPRPRPRPAYPPRP | -0.829 |
| RRIRIRPPRLPRPRPRPCDAPRP | -0.27 |
| RRIRIRPPRLPRPRPRPCDHPRP | -0.752 |
| RRIRIRPPRLPRPRPRPCEVPRP | 0.0421 |
| RRIRIRPPRLPRPRPRPCGGPRP | 0.188 |
| RRIRIRPPRLPRPRPRPCGPPRP | -0.138 |
| RRIRIRPPRLPRPRPRPCGSPRP | -0.0454 |
| RRIRIRPPRLPRPRPRPCHPPRP | -0.447 |
| RRIRIRPPRLPRPRPRPCILPRP | -0.55 |
| RRIRIRPPRLPRPRPRPCIMPRP | -0.466 |
| RRIRIRPPRLPRPRPRPCISPRP | -0.32 |
| RRIRIRPPRLPRPRPRPCIYPRP | -0.0179 |
| RRIRIRPPRLPRPRPRPCLDPRP | -0.0653 |
| RRIRIRPPRLPRPRPRPCLFPRP | -0.639 |
| RRIRIRPPRLPRPRPRPCLWPRP | 0.0796 |
| RRIRIRPPRLPRPRPRPCLYPRP | -0.248 |
| RRIRIRPPRLPRPRPRPCMCPRP | -0.422 |
| RRIRIRPPRLPRPRPRPCQKPRP | -0.0157 |
| RRIRIRPPRLPRPRPRPCSQPRP | -0.226 |
| RRIRIRPPRLPRPRPRPCSWPRP | -0.31 |

— the supplement of paper PMC9112550, “Optimization of the antimicrobial peptide Bac7 by deep mutational scanning” (BMC Biology, 2022)
